Test results reported in IntAct's records for PubMed 29039417.

B1: Protein PTHB1 (Homo sapiens), Q3SYG4 (parent)
chain: MSLFKARDWWSTILGDKEEFDQGCLCLANVDNSGNGQDKIIVGSFMGYLRIFSPHPAKTGDGAQAEDLLLEVDLRDPVLQVEVGKFVSGTEMLHLAVLHSRKLCVYSVSGTLGNVEHGNQCQMKLMYEHNLQRTACNMTYGSFGGVKGRDLICIQSMDGMLMVFEQESYAFGRFLPGFLLPGPLAYSSRTDSFLTVSSCQQVESYKYQVLAFATDADKRQETEQQKLGSGKRLVVDWTLNIGEQALDICIVSFNQSASSVFVLGERNFFCLKDNGQIRFMKKLDWSPSCFLPYCSVSEGTINTLIGNHNNMLHIYQDVTLKWATQLPHIPVAVRVGCLHDLKGVIVTLSDDGHLQCSYLGTDPSLFQAPNVQSRELNYDELDVEMKELQKIIKDVNKSQGVWPMTEREDDLNVSVVVSPNFDSVSQATDVEVGTDLVPSVTVKVTLQNRVILQKAKLSVYVQPPLELTCDQFTFEFMTPDLTRTVSFSVYLKRSYTPSELEGNAVVSYSRPTDRNPDGIPRVIQCKFRLPLKLICLPGQPSKTASHKITIDTNKSPVSLLSLFPGFASQSDDDQVNVMGFHFLGGARITVLASKTSQRYRIQSEQFEDLWLITNELILRLQEYFEKQGVKDFACSFSGSIPLQEYFELIDHHFELRINGEKLEELLSERAVQFRAIQRRLLARFKDKTPAPLQHLDTLLDGTYKQVIALADAVEENQGNLFQSFTRLKSATHLVILLIALWQKLSADQVAILEAAFLPLQEDTQELGWEETVDAAISHLLKTCLSKSSKEQALNLNSQLNIPKDTSQLKKHITLLCDRLSKGGRLCLSTDAAAPQTMVMPGGCTTIPESDLEERSVEQDSTELFTNHRHLTAETPRPEVSPLQGVSE
partner: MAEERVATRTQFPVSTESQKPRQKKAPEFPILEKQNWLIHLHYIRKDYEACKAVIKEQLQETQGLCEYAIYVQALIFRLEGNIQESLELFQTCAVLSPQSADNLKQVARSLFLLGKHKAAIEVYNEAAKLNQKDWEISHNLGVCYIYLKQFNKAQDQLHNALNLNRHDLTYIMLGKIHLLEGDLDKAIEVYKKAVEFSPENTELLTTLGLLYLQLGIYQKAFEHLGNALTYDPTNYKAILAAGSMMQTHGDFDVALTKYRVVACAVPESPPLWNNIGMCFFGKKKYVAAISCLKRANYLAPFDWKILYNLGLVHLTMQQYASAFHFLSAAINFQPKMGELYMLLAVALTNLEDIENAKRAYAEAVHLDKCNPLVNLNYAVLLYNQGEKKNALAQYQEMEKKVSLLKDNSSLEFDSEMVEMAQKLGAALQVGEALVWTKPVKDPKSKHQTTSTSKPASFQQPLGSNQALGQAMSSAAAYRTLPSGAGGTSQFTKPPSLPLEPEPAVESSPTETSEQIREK

Variants of: B1
Conditions: with bbs4_human BBS4, Q96RK4

Variant	effect of a mutation on the interaction
V430E	with no effect
L780A	with no effect
S797K	with no effect
F864A	with no effect
V575E	with no effect
D804K	with no effect
Y490A	with no effect
L491A	with no effect
I548A	with no effect
H869K	with no effect
D859A	with no effect
R854E	with no effect
R854K	with no effect
I534K	with no effect
I534A	with no effect
D513K	with no effect
S558K	with no effect
S486A	with no effect
D435A	with no effect
Q764E	with no effect
D551A	with no effect
T702K	with no effect
T595E	with no effect

Variant	effect of a mutation on the interaction
S570K	with no effect
S494E	with no effect
Q742E	with no effect
S777E	disrupting interaction strength
E664K	with no effect
I776A	with no effect
C525A	with no effect
H651K	with no effect
D517K	with no effect
H694E	disrupting interaction strength
R678E	with no effect
I550K	with no effect
N420A	with no effect
V506E	disrupting interaction strength
V506A	with no effect
L825E	with no effect
D773A	with no effect
Q722E	with no effect
Q722K	with no effect
L665F	disrupting interaction strength
Y623K	with no effect
T405E	with no effect
D410K	with no effect

Variant	effect of a mutation on the interaction
S507A	with no effect
R656K	with no effect
R656A	with no effect
V671R	disrupting interaction strength
S639A	with no effect
P537A	with no effect
R683A	with no effect
A633E	with no effect
R726A	with no effect
T874A	with no effect
T813E	with no effect
K743E	with no effect
E857A	with no effect
Y599A	with no effect
G579K	with no effect
G579E	with no effect
F563S	disrupting interaction strength
R514A	with no effect
V415K	with no effect
S745K	with no effect
Q705E	with no effect
F566A	with no effect
R674E	with no effect

Variant	effect of a mutation on the interaction
D470A	with no effect
S439K	with no effect
Q835K	with no effect
L808A	with no effect
P564E	with no effect
F582K	with no effect
P540E	with no effect
L611K	with no effect
S880K	with no effect
S880A	with no effect
C634K	with no effect
N412E	with no effect
T844E	with no effect
T844K	with no effect
L736A	with no effect
K547E	with no effect
P463E	with no effect
L698E	disrupting interaction strength
L591E	with no effect
K594A	with no effect
V442A	with no effect
F580A	with no effect
